# Test results published in patent publication US20210403864A1, “METHODS AND COMPOSITIONS FOR TREATING ACTIVATED G-ALPHA Q MUTANT CANCERS OR MELANOCYTIC MALIGNANCIES” (Memorial Sloan Kettering Cancer Center, priority 2018, published 2021).
# What was measured:
# [1] = system: human Mel202 uveal melanoma xenografts; experiment: In vivo anti-tumor activity, xenografts in SCID mice; conditions: MEK162 10 mg/kg P.O. b.i.d.; YM-254890 2.5 mg/kg i.p. q.d.; over 20 days; single agents vs vehicle, combination vs vehicle and single agents
# Experimental: To evaluate the effect of YM-254890 and binimetinib (MEK162) in vivo, Mel202 uveal melanoma xenografts were established in SCID mice, and the mice were treated with vehicle only, 10 mg/kg MEK162 (P.O., b.i.d.), YM-254890 (2.5 mg/kg i.p., q.d.) or a combination of MEK162 and YM-254890. Tumor volumes were measured over 20 days.
# [2] = biological target: GNAQ^Q209L (human GNAQ α-subunit, Q209L mutant) (human) (UniProt P50148); experiment: cell-based or functional assay
# Sequence of GNAQ^Q209L (human GNAQ α-subunit, Q209L mutant) (human) (P50148 whole entry Q209L): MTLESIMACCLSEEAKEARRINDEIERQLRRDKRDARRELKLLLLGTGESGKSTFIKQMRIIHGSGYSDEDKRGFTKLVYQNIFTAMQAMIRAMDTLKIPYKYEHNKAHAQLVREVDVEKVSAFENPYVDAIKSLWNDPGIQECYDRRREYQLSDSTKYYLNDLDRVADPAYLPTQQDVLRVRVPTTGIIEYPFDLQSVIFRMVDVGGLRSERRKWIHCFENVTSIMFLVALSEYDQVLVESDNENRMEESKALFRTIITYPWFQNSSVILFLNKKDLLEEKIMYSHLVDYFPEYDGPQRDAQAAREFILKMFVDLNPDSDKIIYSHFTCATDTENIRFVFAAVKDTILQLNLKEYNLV
# [3] = biological target: GNAQ^Q209L/P (endogenous, in three human UVM cell lines) (human) (UniProt P50148); experiment: cell-based or functional assay
# [4] = biological target: GNAQ^R183Q (human GNAQ α-subunit, R183Q mutant) (human) (UniProt P50148); experiment: cell-based or functional assay
# Sequence of GNAQ^R183Q (human GNAQ α-subunit, R183Q mutant) (human) (P50148 whole entry R183Q): as the sequence (P50148 whole entry Q209L) above, with R183Q, L209Q counted along it
compound,measurement,setting,value
"Cn1cnc2c(F)c(Nc3ccc(Br)cc3F)c(C(=O)NOCCO)cc21 [MEK162, binimetinib]",tumor volume,[1],moderate reduction
YM-254890 (peptide),"IP1 accumulation, mutant-transformed melan-a cells, 24-hour treatment (fold less sensitive)",[2],10
same,"IC50 of cell proliferation, human UVM cell lines (CellTiter-glo 2.0, 5 days)",[3],100 nM
same,"IP1 accumulation after 24-hour treatment with variable doses of YM, transfected HEK293T cells (fold less sensitive)",[4],20
same,"IP1 accumulation, mutant-transformed melan-a cells, 24-hour treatment (fold less sensitive)",[4],10
